Measurements published in article PMC3501490, “An Investigation of Hierachical Protein Recruitment to the Inhibitory Platelet Receptor, G6B-b” (PLoS ONE, 2012).
Each block holds one substance with its values, some of them ahead of it.

What was measured:
[1] = target: G6B-b dual phosphopeptide (biotinylated 60-mer, amino acids 182 to 241, pY211 and pY237) (human) (UniProt O95866); assay: SPR; purified SH2 domains of Syk, PLCγ2, Src and PI3K p85 over immobilised G6B-b peptides; how the KD was obtained is not told
[2] = target: G6B-b dual phosphopeptide (biotinylated 60-mer, amino acids 182 to 241, pY211 and pY237) (human) (UniProt O95866); assay: pull-down; direct pull down assay: peptide on Streptactin beads incubated with equimolar purified SH2 domains (100 pM [sic] each for the tandem SH2 domains), 250 µl PBS, 30 minutes, room temperature; bound and unbound fractions on Coomassie-stained gels
Syk SH2 domains = Syk SH2 domains (UniProt P43405); assay: SPR; settings: reference: unphosphorylated peptide; sites Y211,Y237
[3] = target: SHP-1 tandem (N+C) SH2 domains (UniProt P29350); assay: SPR, 37°C
[4] = target: SHP-2 C-terminal SH2 domain (UniProt Q06124); assay: SPR, 37°C; settings: reference: unphosphorylated peptide; sites Y211,Y237
[5] = target: SHP-2 tandem (N+C) SH2 domains (UniProt Q06124); assay: SPR, 37°C
[6] = target: SHP-1 tandem (N+C) SH2 domains (UniProt P29350); assay: SPR kinetics, 37°C; settings: reference: unphosphorylated peptide; sites Y211,Y237
[7] = target: SHP-2 tandem (N+C) SH2 domains (UniProt Q06124); assay: SPR kinetics, 37°C; settings: reference: unphosphorylated peptide
[8] = target: SHP-1 tandem (N+C) SH2 domains (UniProt P29350); assay: direct peptide pull-down, Coomassie gel
[9] = target: SHP-2 C-terminal SH2 domain (UniProt Q06124); assay: direct peptide pull-down, Coomassie gel; settings: reference: unphosphorylated peptide; sites Y211,Y237
[10] = target: SHP-2 N-terminal SH2 domain (UniProt Q06124); assay: direct peptide pull-down, Coomassie gel; settings: reference: unphosphorylated peptide; sites Y211,Y237
[11] = target: SHP-2 tandem (N+C) SH2 domains (UniProt Q06124); assay: direct peptide pull-down, Coomassie gel
[12] = target: Syk tandem (N+C) SH2 domains (UniProt P43405); assay: direct peptide pull-down, Coomassie gel; settings: reference: unphosphorylated peptide; sites Y211,Y237
SHP-2 = SHP-2 (UniProt Q06124); assay: biotin-peptide pull-down from platelet lysate; settings: reference: unphosphorylated peptide; sites Y211,Y237
Syk = Syk (UniProt P43405); assay: biotin-peptide pull-down from platelet lysate; settings: reference: unphosphorylated peptide; sites Y211,Y237
[13] = target: G6B-b pY211 phosphopeptide (biotinylated 60-mer, amino acids 182 to 241, ITIM phosphorylated) (human) (UniProt O95866); assay: pull-down; direct pull down assay: peptide on Streptactin beads incubated with equimolar purified SH2 domains (100 pM [sic] each for the tandem SH2 domains), 250 µl PBS, 30 minutes, room temperature; bound and unbound fractions on Coomassie-stained gels
[14] = target: G6B-b pY237 phosphopeptide (biotinylated 60-mer, amino acids 182 to 241, ITSM phosphorylated) (human) (UniProt O95866); assay: as above
[15] = target: G6B-b dual phosphopeptide (biotinylated 60-mer, amino acids 182 to 241, pY211 and pY237) (human) (UniProt O95866); assay: SPR; BIAcore 3000, biotinylated peptides (50 RU) on streptavidin-coated CM5 chip, single SH2 domains flowed at 10 µl/min, HBS buffer pH 7.4, 0.15 M NaCl, 37°C; KD from equilibrium binding, single site fitting
[16] = target: G6B-b pY211 phosphopeptide (biotinylated 60-mer, amino acids 182 to 241, ITIM phosphorylated) (human) (UniProt O95866); assay: as above
[17] = target: G6B-b pY237 phosphopeptide (biotinylated 60-mer, amino acids 182 to 241, ITSM phosphorylated) (human) (UniProt O95866); assay: as above
[18] = reference: pY211 peptide, sites Y237
[19] = reference: pY237 peptide, sites Y211
[20] = reference: unphosphorylated peptide, sites Y211,Y237

Kd [1]: 25000 nM
percent bound [2]: 20%
Substance: Syk tandem (N+C) SH2 domains (domain or fragment)

percent bound [2]: 70%
percent bound [13]: 50%
percent bound [14]: 25%
Substance: SHP-2 (N+C)SH2 domains (His-tag) (domain or fragment)

binding against the reference ([7]; sites Y211): stronger
other: share of SH2 protein bound ([11]; reference: unphosphorylated peptide, sites Y211): stronger
Substance: G6B-b 182-241 (from UniProt O95866) pY211 peptide

Continued, substance first:

Substance: G6B-b 182-241 (from UniProt O95866) dual pY211/pY237 peptide
KD (Syk SH2 domains): stronger
binding against the reference [3, 18]: stronger
binding against the reference [3, 19]: stronger
binding against the reference [4]: stronger
binding against the reference [5, 18]: stronger
binding against the reference [5, 19]: stronger
KD [6]: 35.3 nM
KD ([7]; sites Y211,Y237): 0.48 nM
other: share of SH2 protein bound [8, 18]: gained; reference little or no association
other: share of SH2 protein bound [8, 19]: gained; reference little or no association
other: share of SH2 protein bound [8, 20]: stronger
binding against the reference [9]: stronger
binding against the reference [10]: stronger
other: share of SH2 protein bound [11, 18]: stronger; reference ∼50
other: share of SH2 protein bound [11, 19]: stronger; reference ∼25
other: share of SH2 protein bound [11, 20]: stronger
other: share of SH2 protein bound [12]: stronger
binding against the reference (SHP-2): gained
binding against the reference (Syk): stronger

Substance: SHP-1 (N+C)SH2 domains (maltose binding protein-tag) (domain or fragment)
percent bound [2]: 30%

Substance: SHP-2 (N)SH2 (His-tag) (domain or fragment)
Kd [15]: 130 nM
Kd [16]: 110 nM
Kd [17]: 10000 nM

Substance: G6B-b 182-241 (from UniProt O95866) pY237 peptide
binding against the reference ([7]; sites Y237): stronger
other: share of SH2 protein bound ([11]; reference: unphosphorylated peptide, sites Y237): stronger

Substance: PLCγ2 N+C tandem SH2 domains (domain or fragment)
percent bound [2]: 40%
